Results from IntAct's records for PubMed 16888622.

B1: TATA-box-binding protein (Saccharomyces cerevisiae), P13393 (parent)
chain: MADEERLKEFKEANKIVFDPNTRQVWENQNRDGTKPATTFQSEEDIKRAAPESEKDTSATSGIVPTLQNIVATVTLGCRLDLKTVALHARNAEYNPKRFAAVIMRIREPKTTALIFASGKMVVTGAKSEDDSKLASRKYARIIQKIGFAAKFTDFKIQNIVGSCDVKFPIRLEGLAFSHGTFSSYEPELFPGLIYRMVKPKIVLLIFVSGKIVLTGAKQREEIYQAFEAIYPVLSEFRKM
partner: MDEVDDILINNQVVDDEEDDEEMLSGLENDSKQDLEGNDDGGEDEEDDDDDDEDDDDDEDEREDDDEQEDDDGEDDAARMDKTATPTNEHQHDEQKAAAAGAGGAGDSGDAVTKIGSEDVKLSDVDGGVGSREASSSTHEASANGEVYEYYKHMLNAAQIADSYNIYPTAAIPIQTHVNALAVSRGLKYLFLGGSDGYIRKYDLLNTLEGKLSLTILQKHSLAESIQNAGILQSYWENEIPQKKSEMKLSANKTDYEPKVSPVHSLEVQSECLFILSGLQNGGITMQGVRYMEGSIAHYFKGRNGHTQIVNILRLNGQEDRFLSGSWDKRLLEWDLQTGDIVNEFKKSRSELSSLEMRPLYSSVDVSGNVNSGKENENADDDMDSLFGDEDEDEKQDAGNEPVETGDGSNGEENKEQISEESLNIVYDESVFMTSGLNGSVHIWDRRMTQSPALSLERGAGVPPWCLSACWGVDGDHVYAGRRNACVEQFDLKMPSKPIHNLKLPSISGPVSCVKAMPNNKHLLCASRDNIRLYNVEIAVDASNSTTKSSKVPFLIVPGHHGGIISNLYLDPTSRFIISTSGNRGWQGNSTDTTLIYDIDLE

Variants of: B1
Settings: with spt8_yeast SPT8, P38915
In the case of MADEERLKEFKEANKIVFDPNTRQVWENQNRDGTKPATTFQSEEDIKRAAPESEKDTSATSGIVPTLQNIVATVTLGCRLDLKTVALHARNAEYNPKRFAAVIMRIREPKTTALIFASGKMVVTGAKSEDDSKLASRKYARIIQKIGFAAKFTDFKIQNIVGSCDVKFPIELEGLAFSHGTFSSYEPELFPGLIYRMVKPKIVLLIFVSGKIVLTGAKQREEIYQAFEAIYPVLSEFRKM [R171E], the “effect of a mutation on the interaction” value is reported as “disrupting interaction”.
